The source of these data is patent publication US12613245 (CORNELL UNIVERSITY, dated 2026).

For experiment [1], the target named is T1, native cell surface CEMIP/KIAA1199 on human MKN45 gastric and N2LA lung cancer cells (human, UniProt Q8WUJ3 31-1361).
T1 construct: Endogenous CEMIP on live CEMIP-high human cell lines (MKN45, N2LA), the target in flow cytometry; also called native CEMIP expressed on the surface
T1 sequence: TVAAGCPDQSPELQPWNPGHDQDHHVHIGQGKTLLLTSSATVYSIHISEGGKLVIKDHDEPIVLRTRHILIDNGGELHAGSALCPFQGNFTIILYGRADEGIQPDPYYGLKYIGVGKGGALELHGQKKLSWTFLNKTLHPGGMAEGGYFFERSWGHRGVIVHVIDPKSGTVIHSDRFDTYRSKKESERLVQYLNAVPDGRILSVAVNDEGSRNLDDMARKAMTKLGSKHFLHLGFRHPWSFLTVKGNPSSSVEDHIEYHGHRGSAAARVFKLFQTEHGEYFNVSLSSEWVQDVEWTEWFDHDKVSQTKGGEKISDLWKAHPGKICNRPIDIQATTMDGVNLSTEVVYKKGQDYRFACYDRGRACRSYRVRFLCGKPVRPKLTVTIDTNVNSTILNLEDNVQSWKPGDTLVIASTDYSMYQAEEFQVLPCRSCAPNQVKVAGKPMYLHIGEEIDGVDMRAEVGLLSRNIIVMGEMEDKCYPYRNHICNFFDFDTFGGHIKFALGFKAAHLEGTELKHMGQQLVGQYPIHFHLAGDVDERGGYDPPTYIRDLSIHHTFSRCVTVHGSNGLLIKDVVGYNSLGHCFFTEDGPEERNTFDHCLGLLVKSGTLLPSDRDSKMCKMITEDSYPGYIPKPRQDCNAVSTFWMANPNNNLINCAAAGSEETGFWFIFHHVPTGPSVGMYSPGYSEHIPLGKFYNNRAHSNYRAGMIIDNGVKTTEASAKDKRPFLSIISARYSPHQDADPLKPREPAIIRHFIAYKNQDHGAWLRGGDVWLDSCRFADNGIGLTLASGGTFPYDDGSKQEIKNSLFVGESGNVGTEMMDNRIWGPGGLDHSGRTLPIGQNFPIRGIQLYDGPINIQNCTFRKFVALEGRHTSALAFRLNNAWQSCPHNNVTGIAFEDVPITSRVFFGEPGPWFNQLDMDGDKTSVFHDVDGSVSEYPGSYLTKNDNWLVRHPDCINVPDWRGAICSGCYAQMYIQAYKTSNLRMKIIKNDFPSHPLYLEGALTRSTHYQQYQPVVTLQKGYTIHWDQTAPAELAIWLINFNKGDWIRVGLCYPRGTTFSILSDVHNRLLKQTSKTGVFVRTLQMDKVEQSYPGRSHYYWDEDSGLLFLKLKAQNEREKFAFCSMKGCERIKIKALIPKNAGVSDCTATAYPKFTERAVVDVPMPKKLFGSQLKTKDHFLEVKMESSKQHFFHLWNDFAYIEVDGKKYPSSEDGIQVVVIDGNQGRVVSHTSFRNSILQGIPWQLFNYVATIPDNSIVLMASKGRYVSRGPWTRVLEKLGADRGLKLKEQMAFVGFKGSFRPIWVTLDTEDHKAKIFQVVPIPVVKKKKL
The experiment can be described thus: flow cytometry on live MKN45 and N2LA cells, purified antibody. The procedure:
The binding of anti-CEMIP antibodies to native CEMIP expressed on the surface of human MKN45 gastric and N2LA lung cancer cell lines is shown.
Purified monoclonal antibodies were tested in secondary flow-cytometry screens on 2 CEMIPhi cell lines, MKN45 and N2LA (FIG. 13). Flow cytometry is performed on live cells, and antibodies bind to the native cell surface CEMIP/KIAA1199. Three antibody clones with high affinity and specificity for human KIAA1199/CEMIP were identified from the first screen: 07F11C02, 10F01B02 and 01F11A01, and the sequence of these antibodies was obtained (Table 12). One of these clones resulted from the protein immunization and two resulted from the DNA immunization (FIG.

The target in experiment [2] is T2, recombinant/purified KIAA1199/CEMIP protein (amino acids 1-649) (human, UniProt Q8WUJ3 31-649).
T2 construct: Truncated CEMIP used as immunogen and as ELISA antigen; also called truncated version of KIAA1199/CEMIP protein
T2 sequence: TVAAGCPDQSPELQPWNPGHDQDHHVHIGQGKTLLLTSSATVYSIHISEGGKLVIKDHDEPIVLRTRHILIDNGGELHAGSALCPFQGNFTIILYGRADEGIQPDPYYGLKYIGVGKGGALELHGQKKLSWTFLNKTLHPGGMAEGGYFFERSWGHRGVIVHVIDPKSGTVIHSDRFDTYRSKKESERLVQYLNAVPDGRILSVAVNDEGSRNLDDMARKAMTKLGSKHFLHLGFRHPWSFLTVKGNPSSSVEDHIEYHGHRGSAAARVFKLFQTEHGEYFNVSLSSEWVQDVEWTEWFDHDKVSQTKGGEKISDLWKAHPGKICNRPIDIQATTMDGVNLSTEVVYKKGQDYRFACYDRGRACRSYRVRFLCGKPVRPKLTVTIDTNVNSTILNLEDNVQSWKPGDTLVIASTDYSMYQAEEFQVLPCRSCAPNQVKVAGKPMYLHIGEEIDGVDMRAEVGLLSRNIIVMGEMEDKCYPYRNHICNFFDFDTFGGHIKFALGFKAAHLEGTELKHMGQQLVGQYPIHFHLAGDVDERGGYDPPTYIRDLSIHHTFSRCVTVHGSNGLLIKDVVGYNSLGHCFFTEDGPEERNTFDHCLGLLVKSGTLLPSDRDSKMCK
The experiment is described as follows: ELISA on recombinant CEMIP, purified antibody (with flow cytometry as second assay). A general note: An ELISA detects its analyte on a solid surface through an enzyme-linked reagent.

For experiment [3], the target named is T1, native cell surface CEMIP/KIAA1199 on …. The experiment is described as follows: flow cytometry on MKN45 cells. (A flow cytometer gives signals particle by particle.)

B1: 07F11C02 (antibody, mouse IgG2a, kappa, V domains shown)
VH: DVQLVESGGGLVQPGGSRKLSCAASGFAFSSFGMHWVRQAPERGLEWVAYISSASNTIYYADTVKGRFTISRDNPKSTLFLQMTSLRSEDTAIYYCAKRDWDLYAMDYWGQGTSVTVSS
VL: DIVMTQSQKFLSTSVGDRVTITCKASQNVGTAVAWYQQKPGQSPELLIYSASNRHTGVPARFTGSGSGTDFTLTITNMQSEDLADYFCQQYSSSPTFGGGTKLESKR
notes: Mouse monoclonal purified from hybridoma, IgG2a kappa; also called cAb4853
For B1, the binding result in experiment [1] was “binds”.

B2: 12D02 (antibody, mouse IgG1, kappa, V domains shown)
VH: EVQLQQSGPELVKPGASMKISCKASGYSFTAYTMNWVKQSHGENLEWIGLINPYNGGTTYNQKFKGKATLTVDKSSSTAYMELLSLTSEDSAVYYCASYDYGYAMDYWGQGTSVTVSS
VL: DVLMTQTPLSLPVSLGDQASISCRSSQSIVHRNGNTYLEWYLQKPGQSPKLLIYKVSNRFSGVPDRFSGSGSGTDFTLKISRVEAEDLGVYYCFQGSHVPWTFGGGTKLEIKR
notes: Mouse monoclonal from hybridoma (second phase screen), IgG1 kappa; also called cAb5775
As to B2, the binding result in experiment [2] and in experiment [3] was “binds” in each case.

B3: 12A12 (antibody, mouse IgG1, kappa, V domains shown)
VH: EVQLQQSGPELVKPGVSMKISCKASGYSFTAYTMNWVKQSHGENLEWIGLINPYNGGTTYNQKFKGKATLTVDKSSSTAYMELLSLTSEDSAVYYCASYDYGYAMDYWGQGTSVTVSS
VL: DVLMTQTPLSLPVSLGDQASISCRSSQSIVHRSGNTYLEWYLQKPGQSPKLLIYKVSNRFSGVPDRFSGSGSGTDFTLKISRVEAEDLGVYYCFQGSHVPWTFGGGTKLEIKR
notes: Mouse monoclonal from hybridoma (second phase screen), IgG1 kappa; also called cAb5776
Turning to B3, the binding result in experiment [2] and in experiment [3] was “binds” in each case.

B4: 13G04 (antibody, mouse IgG1, kappa, V domains shown)
VH: EVHLQQSGPELVKPGASMKISCKASGYSFTAYTMNWVKQSHGKNLEWIGLINPYNGGTTYNQKFKGKATLTVDKSSSTAYMELLSLTSEDSAVYYCASYYGGRGWYFDVWGAGTSVTVSS
VL: DIVLTQSPASLAVSLGQRATISCRASKSVSTSGYSYVHWYQQKPGQPPKLLIYLASNLESGVPARFSGSGSGTDFTLNIHPVEEEDAATYYCQNSRELPYTFGGGTKLEMKR
notes: Mouse monoclonal from hybridoma (second phase screen), IgG1 kappa; also called cAb5778
With B4, the binding result in experiment [2] and in experiment [3] was “binds” in each case.

B5: 12D08 (antibody, mouse IgG2a, kappa, V domains shown)
VH: EVQLQQSGAELVKPGASVKLSCTASGFNIKDTYMHWVKQRPEQGLIWIGNIDPANGHTKYAPKFQGKATITADTSSNTAYLQLSSLTSEDTAVYYCARSNDYDVDFDYWGQGTTLTVSS
VL: DIVMSQSPSSLAVSAGEKVTMSCKSSQSLLNSRTRKNYLAWYQQKPGQSPKLLIYWASTRESGVPDRFTGSGSGTDFSLTISSVQAEDLAVYYCKQSYNLYTFGGGTKLEIKR
notes: Mouse monoclonal from hybridoma (second phase screen), IgG2a kappa; also called cAb5777
For B5, the binding result in experiment [2] and in experiment [3] was “binds” in each case.
